Experimental data as given in article PMC5712553, “A Novel TetR Family Transcriptional Regulator, CalR3, Negatively Controls Calcimycin Biosynthesis in Streptomyces chartreusis NRRL 3882”.
Changes are numbered by the printed parent chain.

T1: CalR3 (Streptomyces chartreusis NRRL 3882) (UniProt F8QZR9)
T1 sequence: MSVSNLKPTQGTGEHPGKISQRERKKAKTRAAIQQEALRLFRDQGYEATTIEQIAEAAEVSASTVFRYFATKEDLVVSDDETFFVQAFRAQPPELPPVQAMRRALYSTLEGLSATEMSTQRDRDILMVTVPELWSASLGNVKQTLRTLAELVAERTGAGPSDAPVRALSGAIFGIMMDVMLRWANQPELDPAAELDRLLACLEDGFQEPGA

T2: CalR3 (Streptomyces chartreusis NRRL 3882, UniProt F8QZR9 1-211)
T2 sequence: T1 sequence

B1: m1 (site II palindrome mutated) (dsDNA)
DNA 1: AAGAGCGAGCCTCATGACAGGCAACCTTCTTTTAGGAGTCGAGAATTCTAGATATCCCTACTAGCACTTTGAGGAGATGA
DNA 2: TCATCTCCTCAAAGTGCTAGTAGGGATATCTAGAATTCTCGACTCCTAAAAGAAGGTTGCCTGTCATGAGGCTCGCTCTT
B2: m1&2 (sites I and II mutated) (dsDNA)
DNA 1: B1 DNA 1 with T15A, G16C, A17T, C18G
DNA 2: B1 DNA 2 with G63C, T64A, C65G, A66T
B3: m0 (dsDNA)
DNA 1: AAGAGCGAGCCTCATGACAGGCAACCTTCTTTTAGGAGTCGACTTTCAATTGATAGCCTACTAGCACTTTGAGGAGATGA
DNA 2: TCATCTCCTCAAAGTGCTAGTAGGCTATCAATTGAAAGTCGACTCCTAAAAGAAGGTTGCCTGTCATGAGGCTCGCTCTT

Legend:
[1] = target: T1, CalR3 (Streptomyces chartreusis NRRL 3882); test: EMSA; details: EMSA: 20 mM Tris-Cl pH 8.0, 100 mM KCl, 10 mM DTT, 37 C, 30 min, 20 ul, footprinting: 25 C, 500 ng probe in 40 ul
[2] = target: T2, CalR3; test: EMSA; 1.5 uM probe, 0.8 uM CalR3; EMSA: 20 mM Tris-Cl pH 8.0, 100 mM KCl, 10 mM DTT, 37 C, 30 min, 20 ul; footprinting: 25 C, 30 min, 500 ng probe in 40 ul; details: protein: recombinant; tags: N-terminal His6 (pET28a); chain copies: 2
[3] = target: T2, CalR3; test: EMSA; 1.5 uM probe, 0.8 uM CalR3; two shifted bands; EMSA: 20 mM Tris-Cl pH 8.0, 100 mM KCl, 10 mM DTT, 37 C, 30 min, 20 ul; footprinting: 25 C, 30 min, 500 ng probe in 40 ul; details: protein: recombinant; tags: N-terminal His6 (pET28a); chain copies: 2

Molecule | binding [1] | binding result [2] | other results
TGACAGGCAACCTTCTTTTAGGAGTCGACTTTCAATTGATAGCCTACTAGCACTTTGAGGAGATGAGAACTCCTCCTCGCTGCCACCGCCGCACGCGGCCGGGCGCGGCACAGCCGTGACCGGCCGGCCGCCGGAGAGCCTGGAGAATGTGGAGCA (double strand) [T-R3 (calT-calR3 intergenic)] | binds |  | 
TCCCTTGCGTCGGTTTCAGGTTGGACACGCTCATGCTCCACATTCTCCAGGCTCTCCGGCGGCCGGCCGGTCACGGCTGTGCCGCGCCCGGCCGCGTGCGGCGGTGGCAGCGAGGAGGAG (double strand) [T-R3R] | no binding |  | 
CCAGCCGGTAAAGAGCGAGCCTCATGACAGGCAACCTTCTTTTAGGAGTCGACTTTCAATTGATAGCCTACTAGCACTTTGAGGAGATGAGAACTCCTCCTCGCTGCCACC (double strand) [T-R3L] | binds |  | 
B1 |  | no binding | 
B2 |  | no binding | 
B3 |  |  | binding result [3]: binds
